In experiment [1] the target is mouse TGF-β1 D212A single Ala-mutant on HEK-293T cells (mouse, UniProt P04202 30-278; P04202 279-390). The experiment is described as follows: Ala-scan, flow cytometry on HEK-293T cells with mouse GARP and HA-tagged single Ala-mutant. An excerpt:
(§1) To perform “Ala-scan” analyses, we co-transfected plasmids encoding mouse or human GARP and the single Ala-mutants of mouse or human TGF-β1 in HEK-293T cells, and analyzed binding by TGF-β1-activating and non-activating mAbs using flow cytometry (FIG. 3C).

The target of experiment [2] is mouse TGF-β1 L208A single Ala-mutant on HEK-293T cells (mouse, UniProt P04202 30-278; P04202 279-390). The description is as above.
Source text: as §1

The next experiment has as its target T1, mouse latent TGF-β1 (mouse, UniProt P04202 30-278; P04202 279-390).
T1 construct: signal peptide 1-29 left out; also called murine latent TGF-β1 (immobilised protein)
The experiment is described as follows: SPR (Biacore 3000), mouse latent TGFβ1 amine-coupled on CM5 (about 500 RU), antibody at 3-100 nM. Here is the method:
A CM5 chip was immobilized with approximately 500RU human latent TGFβ1 and mouse latent TGFβ1 in sodium acetate buffer pH4.5 (GE Healthcare, #BR100350) using amine coupling and consuming HBS-EP buffer. The flow was set to 30 μl/min with the “kinject” injection mode and a regeneration injection of 10 mM glycine pH1.5.

Another experiment has as its target T2, human latent TGF-β1 (human, UniProt P01137 30-278; P01137 279-390).
T2 construct: signal peptide 1-29 left out; also called human latent TGF-β1 (immobilised / coated protein)
The experiment is described as follows: SPR (Biacore 3000), human latent TGFβ1 amine-coupled on CM5, antibody injected.

The target in a further experiment is T3, G202A.
T3 construct: co-expressed with GARP; also called mouse TGF-β1 G202A single Ala-mutant on HEK-293T cells
The experiment is described as follows: Ala-scan, flow cytometry, HEK-293T cells with GARP and the HA-tagged Ala-mutant; residual binding in % of WT.
Source text: as §1

The target in the next experiment is T4, V203A.
T4 construct: co-expressed with GARP; also called mouse TGF-β1 V203A single Ala-mutant on HEK-293T cells
The experiment is described as above.
Source text: as §1

A further experiment has as its target T5, R205A.
T5 construct: co-expressed with GARP; also called mouse TGF-β1 R205A single Ala-mutant on HEK-293T cells
The description is as above.
Source text: as §1

A further experiment has as its target T6, G216A.
T6 construct: co-expressed with GARP; also called mouse TGF-β1 G216A single Ala-mutant on HEK-293T cells
The description is as above.
Source text: as §1

For another experiment, the target named is T7, Q215A.
T7 construct: co-expressed with GARP; also called mouse TGF-β1 Q215A single Ala-mutant on HEK-293T cells
The experiment is described as above.
Source text: as §1

For a further experiment, the target named is T8, N209A.
T8 construct: co-expressed with GARP; also called mouse TGF-β1 N209A single Ala-mutant on HEK-293T cells
Described as above.
Source text: as §1

The target in the next experiment is T9, F217A.
T9 construct: co-expressed with GARP; also called mouse TGF-β1 F217A single Ala-mutant on HEK-293T cells
Described as above.
Source text: as §1

A further experiment deals with T10, V204A.
T10 construct: co-expressed with GARP; also called mouse TGF-β1 V204A single Ala-mutant on HEK-293T cells
The description is as above.
Source text: as §1

The next experiment has as its target T11, S220A.
T11 construct: co-expressed with GARP; also called mouse TGF-β1 S220A single Ala-mutant on HEK-293T cells
The description is as above.
Source text: as §1

The target in the next experiment is T12, G211A.
T12 construct: co-expressed with GARP; also called mouse TGF-β1 G211A single Ala-mutant on HEK-293T cells
The experiment is described as above.
Source text: as §1

A further experiment deals with T13, Q210A.
T13 construct: co-expressed with GARP; also called mouse TGF-β1 Q210A single Ala-mutant on HEK-293T cells
The experiment is described as above.
Source text: as §1

A further experiment concerns the target T14, F219A.
T14 construct: co-expressed with GARP; also called mouse TGF-β1 F219A single Ala-mutant on HEK-293T cells
The experiment is described as above.
Source text: as §1

The next experiment concerns the target T15, T201A.
T15 construct: co-expressed with GARP; also called mouse TGF-β1 T201A single Ala-mutant on HEK-293T cells
The experiment is described as above.
Source text: as §1

For a further experiment, the target named is T16, R218A.
T16 construct: co-expressed with GARP; also called mouse TGF-β1 R218A single Ala-mutant on HEK-293T cells
The experiment is described as above.
Source text: as §1

A further experiment addresses T17, Q206A.
T17 construct: co-expressed with GARP; also called mouse TGF-β1 Q206A single Ala-mutant on HEK-293T cells
Described as above.
Source text: as §1

The target of another experiment is T18, W207A.
T18 construct: co-expressed with GARP; also called mouse TGF-β1 W207A single Ala-mutant on HEK-293T cells
The description is as above.
Source text: as §1

For the next experiment, the target named is T19, G213A.
T19 construct: co-expressed with GARP; also called mouse TGF-β1 G213A single Ala-mutant on HEK-293T cells
The description is as above.
Source text: as §1

The next experiment concerns the target T20, I214A.
T20 construct: co-expressed with GARP; also called mouse TGF-β1 I214A single Ala-mutant on HEK-293T cells
The description is as above.
Source text: as §1

The target in experiment [3] is T21, mouse latent TGF-β1 on transfected HEK-293T cells (mouse, UniProt P04202 30-278; P04202 279-390).
T21 construct: also called mouse TGF-β1; mTGF-β1
The experiment is described as follows: flow cytometry, HEK-293T cells co-transfected with mGarp and the HA-tagged TGF-β1 construct.

Experiment [4] deals with T21, mouse latent TGF-β1 on transfected …. The experiment is described as follows: cell-based or functional assay.
The target of experiment [5] is T22, mouse latent TGF-β2 on transfected 293T cells (mouse, UniProt P27090 21-414).
T22 construct: whole, on cells; also called murine latent TGF-β2; HA-tagged TGF-β2
T22 sequence (looked up): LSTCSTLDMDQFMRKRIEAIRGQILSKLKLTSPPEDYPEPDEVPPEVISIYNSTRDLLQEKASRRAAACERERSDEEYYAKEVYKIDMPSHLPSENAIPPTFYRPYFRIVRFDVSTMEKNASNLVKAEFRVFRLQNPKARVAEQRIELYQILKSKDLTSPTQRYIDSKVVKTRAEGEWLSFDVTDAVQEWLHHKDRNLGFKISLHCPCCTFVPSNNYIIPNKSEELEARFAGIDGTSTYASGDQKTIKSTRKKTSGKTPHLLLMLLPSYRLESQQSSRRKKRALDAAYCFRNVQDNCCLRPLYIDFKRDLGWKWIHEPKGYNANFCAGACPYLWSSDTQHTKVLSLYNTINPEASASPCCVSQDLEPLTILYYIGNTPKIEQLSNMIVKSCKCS
The experiment is described as follows: flow cytometry, 293T cells transfected with GARP and HA-TGF-β2, GAM-FITC as secondary reagent; expression shown by anti-HA staining. An excerpt: (§2) Flow cytometry was used to ensure that LMT-12 binds specifically to mouse latent TGF-β1 and not to mouse latent TGF-β2 and mouse latent TGF-β3. Briefly, 293T cells were transfected with plasmids encoding HA-tagged TGF-β1, β2, or β3, with a plasmid encoding GARP. They were then stained with the indicated concentrations of LMT-12 mIgG1 or anti-HA mIgG1 antibody and thereafter with goat anti-mouse coupled to FITC (GAM-FITC) as secondary reagent. Using flow cytometry, histograms were gated on live cells as determined with a viability dye (Bioscience, cat. 65-0865-14).

For experiment [6], the target named is T23, mouse latent TGF-β3 on transfected 293T cells (mouse, UniProt P17125 24-410).
T23 construct: whole, on cells; also called murine latent TGF-β3; HA-tagged TGF-β3
T23 sequence (looked up): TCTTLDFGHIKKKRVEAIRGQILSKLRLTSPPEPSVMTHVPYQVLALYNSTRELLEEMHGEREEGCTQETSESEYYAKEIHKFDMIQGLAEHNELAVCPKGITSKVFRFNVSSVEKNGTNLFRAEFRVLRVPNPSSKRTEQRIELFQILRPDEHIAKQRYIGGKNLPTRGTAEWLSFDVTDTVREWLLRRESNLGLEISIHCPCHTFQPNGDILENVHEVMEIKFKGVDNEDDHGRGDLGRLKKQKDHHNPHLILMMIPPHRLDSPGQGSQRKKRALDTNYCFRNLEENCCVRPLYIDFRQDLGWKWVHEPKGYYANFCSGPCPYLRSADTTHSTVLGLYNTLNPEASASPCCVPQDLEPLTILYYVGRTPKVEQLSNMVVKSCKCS
The experiment is described as follows: flow cytometry, 293T cells transfected with GARP and HA-TGF-β3, GAM-FITC as secondary reagent; anti-HA staining gives only a low tail.
Source text: as §2

Two molecules from patent publication US20250188161A1 (UNIVERSITE CATHOLIQUE DE LOUVAIN, published 2025) can be followed below.

Values joined by “and” are separate entries in the source; they are usually repeats but may differ in a detail not shown here. Equal entries are not always repeated.

T1 sequence (P04202 30-278, chain 1 of 2): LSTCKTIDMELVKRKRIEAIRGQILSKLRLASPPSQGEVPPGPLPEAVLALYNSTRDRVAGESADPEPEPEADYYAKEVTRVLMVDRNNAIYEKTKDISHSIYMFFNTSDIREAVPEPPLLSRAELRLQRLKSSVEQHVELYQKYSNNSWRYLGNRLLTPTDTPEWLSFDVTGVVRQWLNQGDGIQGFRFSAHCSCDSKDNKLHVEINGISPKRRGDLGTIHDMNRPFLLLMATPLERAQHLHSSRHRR
T1 sequence (P04202 279-390, chain 2 of 2): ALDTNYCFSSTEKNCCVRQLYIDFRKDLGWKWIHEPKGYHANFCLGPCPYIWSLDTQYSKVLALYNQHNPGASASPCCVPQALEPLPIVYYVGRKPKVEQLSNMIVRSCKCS
T21 sequence (P04202 30-278, chain 1 of 2): as the sequence (P04202 30-278, chain 1 of 2) above
T21 sequence (P04202 279-390, chain 2 of 2): as the sequence (P04202 279-390, chain 2 of 2) above
T6 sequence (HA-tagged latent TGF-β1, as listed by the source G216A G216A limits assumed): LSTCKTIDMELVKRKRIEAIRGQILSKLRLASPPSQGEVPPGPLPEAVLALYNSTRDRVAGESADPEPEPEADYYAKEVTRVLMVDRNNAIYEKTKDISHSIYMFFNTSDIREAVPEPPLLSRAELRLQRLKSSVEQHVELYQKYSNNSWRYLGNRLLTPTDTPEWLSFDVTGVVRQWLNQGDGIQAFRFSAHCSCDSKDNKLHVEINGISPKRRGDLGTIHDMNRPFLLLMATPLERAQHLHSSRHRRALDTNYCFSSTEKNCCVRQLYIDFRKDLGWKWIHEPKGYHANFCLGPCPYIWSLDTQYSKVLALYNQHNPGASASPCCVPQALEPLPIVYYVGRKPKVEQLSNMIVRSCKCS
T3 sequence (HA-tagged latent TGF-β1, as listed by the source G202A G202A limits assumed): as the sequence (HA-tagged latent TGF-β1, as listed by the source G216A G216A limits assumed) above, with G173A, A187G counted along it
T2 sequence (P01137 30-278, chain 1 of 2): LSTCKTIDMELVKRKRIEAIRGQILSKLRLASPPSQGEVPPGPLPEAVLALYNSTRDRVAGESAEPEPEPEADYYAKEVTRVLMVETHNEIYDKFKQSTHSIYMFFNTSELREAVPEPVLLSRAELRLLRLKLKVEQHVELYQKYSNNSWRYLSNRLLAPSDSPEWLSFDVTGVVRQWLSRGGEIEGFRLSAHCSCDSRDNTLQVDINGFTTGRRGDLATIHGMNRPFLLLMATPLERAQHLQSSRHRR
T2 sequence (P01137 279-390, chain 2 of 2): as the sequence (P04202 279-390, chain 2 of 2) above, with S75A counted along it
T16 sequence (HA-tagged latent TGF-β1, as listed by the source R218A R218A limits assumed): as the sequence (HA-tagged latent TGF-β1, as listed by the source G216A G216A limits assumed) above, with A187G, R189A counted along it
T12 sequence (HA-tagged latent TGF-β1, as listed by the source G211A G211A limits assumed): as the sequence (HA-tagged latent TGF-β1, as listed by the source G216A G216A limits assumed) above, with G182A, A187G counted along it
T5 sequence (HA-tagged latent TGF-β1, as listed by the source R205A R205A limits assumed): as the sequence (HA-tagged latent TGF-β1, as listed by the source G216A G216A limits assumed) above, with R176A, A187G counted along it
T17 sequence (HA-tagged latent TGF-β1, as listed by the source Q206A Q206A limits assumed): as the sequence (HA-tagged latent TGF-β1, as listed by the source G216A G216A limits assumed) above, with Q177A, A187G counted along it
T20 sequence (HA-tagged latent TGF-β1, as listed by the source I214A I214A limits assumed): as the sequence (HA-tagged latent TGF-β1, as listed by the source G216A G216A limits assumed) above, with I185A, A187G counted along it
T19 sequence (HA-tagged latent TGF-β1, as listed by the source G213A G213A limits assumed): as the sequence (HA-tagged latent TGF-β1, as listed by the source G216A G216A limits assumed) above, with G184A, A187G counted along it
T14 sequence (HA-tagged latent TGF-β1, as listed by the source F219A F219A limits assumed): as the sequence (HA-tagged latent TGF-β1, as listed by the source G216A G216A limits assumed) above, with A187G, F190A counted along it
T9 sequence (HA-tagged latent TGF-β1, as listed by the source F217A F217A limits assumed): as the sequence (HA-tagged latent TGF-β1, as listed by the source G216A G216A limits assumed) above, with A187G, F188A counted along it

B1: LMT-2 (6D12) (antibody, V domains shown)
VH: EVQLVESGGGLVQPGGSLRLSCAASGFTFSNYGVHWVRQAPGKGLEWVSHISAAGISRYYADAVKGRFTMSRDNGKNTLYLQMNGLKSEDTAVYYCAKDRIRSSYEYDSWGQGTQVTVSS
VL: LPVLTQLSSMSGSPGQTVTITCTGSSSNIGGGYYLSWYQQLPGTAPKLLIYNANNRASGVPNRFSGSKSGNLASLTITGLQAEDEADYYCGCYDSSLSTGYVFGGGTKLTVL
notes: also called LMT-2 (hIgG1)
Consider B1, for which the binding result in experiment [1] was “no binding”; in experiment [2], “no binding”; with human latent TGF-β1, “no binding (tested: six concentrations, 3 nM to 100 nM)”; with G202A it was “binds”; with V203A it was “binds”; in the experiment with R205A, “binds”. The binding result with G216A, with Q215A, with N209A, with F217A, in the experiment with V204A and with S220A was “binds” each time. For the same molecule, the binding result with G211A, with Q210A, with F219A, with T201A, in the experiment with R218A and with Q206A was “binds” in each case. The binding result with W207A, with G213A and in the experiment with I214A was “binds” each time. Also, the “Amplitude R0 (RU)” value with mouse latent TGF-β1 was 241 RU. In the experiment with mouse latent TGF-β1, this molecule gave a Kd of 0.633 nM. The same molecule came in with a koff with mouse latent TGF-β1 of 0.000718 s⁻¹. Besides, the kon with mouse latent TGF-β1 was determined as 1.14e+06 M⁻¹ s⁻¹. Also, the “% binding relative to WT TGF-β1 (100 %)” value in [3] came out at 100%. Also, in experiment [4], the “EC50, TGF-β1 luciferase reporter assay in HEK-293T cells expressing GARP:TGF-β1” value is 76 ng/ml and 0.5 nM.

B2: LMT-12 mIgG1 (antibody, V domains shown)
VH: EVQLVESGGGLVQPGGSLRLSCAASGFTFSSYYMYWVRQAPGKGLEWVSGTSIGGGSTWYADSVKGRFTISRDNAKNTLYLQMNNLKSEDTAVYYCAKDLNSRSYKGMGDWGQGTQVTVSS
VL: QPALTQLSSMSGSPGQTVTITCTGSSSNIGGGYYLNWYQQLPGAAPKLVIYNANNRASGVPDRFSGSKSGNLASLTITGLQAEDEAVYFCGCYDSSLSSVVFGGGTHLTVL
notes: also called mAb LMT-12
On to B2, for which the binding result in [5] and in experiment [6] was “no binding (tested: 20.00 µg/ml)” throughout.
